Test results published in the DeepSol protein solubility set.

Assay: soluble on expression in E. coli; label from the status in PepcDB or PDB records

| Sequence | soluble on expression in E. coli |
| --- | --- |
| MGSDKIHHHHHHMDIKQLRYFVEVARREHISDAALELNIAQSAISRQITQLEKELGVTLFKRSGRNIILTVEGRQLLSQATQILELMDKTIHSFQQHVSHNQQTIYIGYEESDASQMILPLIQTFEQQSNSTMIPQLTKHDKLLDQILSNQLDLAITEFTPVLERETHLRVMPLFEENYYMYVPKSHPLAMTVHPPLSQFTNQSLYCLEPMTSSIKSKLIEKTKAQVRMISDMKLAQHILSHNKGFIISSQNSLLYDHVNWTKIPLNHTELKRMLCVVMRKDNKKNDINIAWNLICTLLNKSTIY | not soluble |
| MISSNSSSTSLNVETDYPTNGKKPLKEGSVQLTSLSTLLSHHRYFFLYHETLIISKQKGACSYKLKEKLRLEKVWIASSNTADSFLIGWPFTNYLVHFRNTEEKDEWFELLSCCVQQCLRPLFTTISMEINVRGRKQTIRRRVDNGKKSGEIVVDTAGDLGLPHTSYQLTLSFGDNSHRQLQGPENVYVAIMSEIERQGTRLSESQKQALDTCPIANCRLILSTIKSTSGPSAKQLVNSIKKKVLTRTDSRSIFGKGLNGPTPPQPIMTIVDHLRMDGFDAEGIFRKSPKQSTFKELKCELDKGVVPDFHKYNTHVLASILKEYLRSIPGKILLSGNYELWMREIADEPNTEKKVSCCRALLSHLPTSHSILLANVLKLLNKISNSPSSKMNASSLSVCLAPSFLESPDPMEGGKKIPPLIEFLISHAAQVMPGFSTDNVFAIMTSPMVDHNANMVCSPAPSSSHSDDGGSSQKTPIIEELNDADDATSQSSLAESDLPDEPRGTSAHLETISEISEPPTNDERLVFSSSEDEDDDDEDELRVYRPKSSTSTSSCFARTSFVSETLKTSADDGDKGLNKETPRSPCLKRIHFQRTEAQHRNKEGNIKLDFEALKFHRPSVRKSSLEEVARKNSAEFFHHSREPSDAAVTPTPPKNGSTMRKESREEATQTADCGLPHISSNDDSDSRFPAFKSSSVAMLTEPYKSSSSSSSSTSSIPSDPAPRPYFLKEEYTSLANKPTVQVAPFSQEPSLKTINDRLNALRQNSILAQEVPQEPVMTSSRLRSEATKSLTNSPIMPRSYGGSLMQKDREEHSFVADDFYKASSRKPELQRSSSQRGLTSMNNNNNSTKQIYGARPSSLKTPRRFAGAGGVEACVGMDPLEINWSVSQLKTLFQDTKAPSIDTTYNMN | not soluble |
| GPGSMADILKSVKRIVVKVGSSILVDNQEIAAHRIEALCKFIADLQTKYEVILVTSGAVAAGYTQKEMDKAYVPNKQALASMGQPLLMHMYYTQLQKHGILCAQMLLAAYDLDSRKRTMNAHNTIEVLISHKVIPIINENDATALHELVFGDNDRLSALVAHHFKADLLVILSDIDGYYTENPRASTDAKIRSVVHELSPDDLVAEATPNNPFATGGIVTKLQAAQFLLERGGKMYLSSGFHLEKAREFLFGGSHEIGTLFYPRGSSS | soluble |
| MGSDKIHHHHHHMSIFFLNNGIMNILQEYSVLNAKVIIYEENGIGYYKVNEPNLDQNEIEILNSILEYIYSTPSVPNIEETVVKILKNKGISDQGIIEKIIYYLRKRIGYDELTVPLADPYVEEIECKGFSYPVTVVHRIVTRFPRLYTNIILEQEDHVLKVIEKLANKADKPVSIAKPYLEFSLPEGHRVAATVSREVSLPGSTFDIRKFPLKPISPISLIKNESISSLMLAYIWFLLDYKPFFLIIGSTGSGKTTLLNSILSMINPFFKVITIEDTPEINIIHDNWIRFFARQSISSQFEVSLMDLAKLSLRYRPDYLVIGEIRGKEIEALVHASASGHGSLATFHAGNPHEALTRLLSLLNKDVAKLFLQNLWGIIVLGTLRDRNGNIRRIIRSIYEIVYTRGKLRFRPVLRWSFSSNTFMPNNIDDLIKRSYRISYISKTYEIPISEITKEISNRVKTLNNFVSNNILDLEEFSVYLKKISQGDKVETKAI | not soluble |
| MLTLLNRWRSQPGGASNAAAFIRVLESPKSAVTDKVLVLKAFNDWDVLVNTWFEVADALPAVEQLLDNNTFPEHSSAALLVSKVYFCLEQYERALEFALRGDFNVVPATRTGLGNDAEYVNKIIETAIDTYKTLSKQGSGIPQKLRDLIDRIVARNLDKREIWFVISLGFETTNLAMIDRAISAMPADLTIKNQTTLVETLNRVVNGAFDRSFRFQVIDTVIKTYLKCPSPDMSKICECYVLTDNAEAAADTITSLIAKSLSTRAYQIAFDLYETASQGFLDRVLKRFQQQDARDEKSMEKIHSILKGHETVKAYLDFFVRHNHTDSVLMEEIKENIRTASAHNALLISNGLMQYGTTCDDFLRNNLNWVSKATNWNKFNAVASLGLIHHGQESSAMKVLEPYLPKESVEGFGFKEGGAMLAYGLIHAKHGDATAMSTLAQWLKTAENEPVRHGACLGFGVAGLGSSSVSNYEKVREVLQRDEAVSGESAGIAMGLIMAGHLNQEVFNELKQYTVDTQHDKTQRGIRTGLACAAFGLQGDAEPYIKEAIGAKSNPMLRSTGICMLSMAYAGTGSPDVVRRLLEKVATDPNLDVKRYATIGIGFVLSKDPSTCLSYVAMLTEHFNGHVRYGAAMALGIACAGTGNMEAIALIEPMISDKEGFVRKGALLSLALIMCQQTDYTCPKVNGFRKQLLKKIGEKNEDSLVKFGAIIAQGLLDIGGQNAAVTMQNSDKQPDMGSMVGMMCFLHGWFWHSMHFFIALAAKPSCLVMMNENLKIPVLDYICHANSQKFAYPPRAESKKDKDVKKIETVVLSITGKKNASKKLIAEEKKRREAAASASSAAAAPSSSSTSGTAPAAEDEKMEVDQPGKSKKEKAPEKDTKPLHRLQNPARVIPAQRQLISISDARAYSPMKPLYKGGIIVADRVDKEREEKLVSEVVTQVNTPASSGNTENKPHSTFEININDF | not soluble |
| MGSDKIHHHHHHMKLIESVPNFSEGRRKEVVEKIVAEAKKYDRVWVLDWSMDADHNRSVITLVGEPENLINALFDMTKKAAELIDLRNHTGQHPRMGAADVIPLVPLYNTTMEECVEYSKILGRRIGEELGIPVYLYEKSATRPERQNLADIRKGEFEGFFEKIKDPLWKPDFGPDRVHPTAGVTAVGAREFLIAFNVNLGTRDVKIAEKIARAIRFSSGGLRYVKAIGVDLKGRGVVQVSINITNHKKTPLYRVFELIKMEAERYGVPVLGSEIVGLFPLESLLKTVSYYLRTDLNAKKVIESNLLEILVRESEK | not soluble |
| GAMSGLADKVIWAVNAGGESHVDVHGIHYRKDPLEGRVGRASDYGMKLPILRSNPEDQVLYQTERYNEDSFGYDIPIKEEGEYVLVLKFAEVYFAQSQQKVFDVRVNGHTVVKDLDIFDRVGHSTAHDEIIPISIKKGKLSVQGEVSTFTGKLSVEFVKGYYDNPKVCALFIMKGTADDVPMLQPHPGLE | soluble |
| MQFSTVASIAAVAAVASAAANVTTATVSQESTTLVTITSCEDHVCSETVSPALVSTATVTVDDVITQYTTWCPLTTEAPKNGTSTAAPVTSTEAPKNTTSAAPTHSVTSYTGAAAKALPAAGALLAGAAALLL | soluble |
| MGSDKIHHHHHHMVNGNITQLSDMQIPENWGAYLAEKSTQNNAFFTSGVVQNVPQIAALLGAGKVANMPLFKPLADDDPQVPDDTTDLLVNKITTDLAQARKLGFDQAWSATDLSAELSGADPLSAIGDQVSDYWSHVYEKLLLQTLTGVFSSTSMKGVNQLDTTTDKTDTTFSLKNFNKARFLLGDRYKDLAIVAVHSDILRQLQDANLVDAKNNSTFVLNGNSNVPTAIQTPDAGDKIKGVQIVVDDSLPVDNGKYTSYLFAQGAVGYSELPVTNAVETNRDPLKNHGIDYLVNRRRFVFAPQGLSWNESNFVTKNPGKTYPSMTDLADGTNWSKVYDHKLIPMAQFVTSADAIVPSTTADPQTGK | not soluble |
| MITFKPTRNIDLIEAVGNHPDIIAGSNNGDGYDYKPECRYFEVNVHGQFGGIVYYQEIQPLTLDCHAMYLPEIRGFSKEIGLAFWRYILTNTTVQCVTSFAARKFRHGQMYCAMIGLKRVGTIKKYFKGVDDVTFYSATREELIDFLNHGR | not soluble |
| MGSDKIHHHHHHMDISIGDDSNGAVISIVGSHLDKLNLNGTAILLERYDDSPTHFGSAFLFPYANRVRNGEFTLDGKRYFLPKDDENNSIHGLVLSKKFDLVEKIENSVTMRYIMADECYPSPIEIFITHTVSEGKYTCRVKASNRGLTRAPVSAGFHPYFLYNGRWAIKKPRDTWKLEYDGQFPTGKMDKFLFEEDSFMHEFDNQFFADEDIVVDMGSHMIQIERENMPFFVIYNGKYSGGKSVAIEPMMSAVDAFNNGIGLRIVNPGESIEFAYSVEIRE | not soluble |
| MLNGKNKSAVNRQRFLKRHKEQIKESVADAVNRRSITNTETGEDVSIPHKDINEPIFHQGKGGVRERVHPGNDQFITGDKIERPKGGGQGSGSGEGNASPDGEGQDEFVFQISKDEYLDILFEDLELPNLEKNQIAKITEWKTHRAGFQTAGIPSNISVIRSLQQSLARRTAMTAGKKRLLKELEDELTRIKNIEPAQQLEENRLKKEIEELRKKIENVPFIDTFDLRFKNYEKRPVPSSQAVMFCLMDVSGSMDQATKDIAKRFYVLLYLFLTRTYENVDVVFIRHHTQAKEVDEHEFFYSQETGGTIVSSALKLMDEIVKERYPVGQWNIYAAQASDGDNWADDSPRCRDLLVNKLLPNCQYYSYIEITRRSHQTLWHEYEKLTDEFPNFAMKNIRSVEDIFPVFRELFQKETALEHHHHHH | not soluble |
| MEAAHFFEGTEKLLEVWFSRQQPDANQGSGDLRTIPRSEWDILLKDVQCSIISVTKTDKQEAYVLSEASMFVSKRRFILKTCGTTLLLKALVPLLKLARDYSGFDSIQSFFYSRKNFMKPSHQGYPHRNFQEEIEFLNAIFPNGAAYCMGRMNSDCWYLYTLDFPESRVISQPDQTLEILMSELDPAVMDQFYMKDGVTAKDVTRESGIRDLIPGSVIDATMFNPCGYSMNGMKSDGTYWTIHITPEPEFSYVSFETNLSQTSYDDLIRKVVEVFKPGKFVTTLFVNQSSKCRTVLASPQKIEGFKRLDCQSAMFNDYNFVFTSFAKKQQQQQSHICRSQMVTSQQTSSVVRQT | soluble |
| MGSDKIHHHHHHMARLGVDFGTSNTAAGLVQAGHPRVLPLEPGAQTLPTAVFIDFAARRYVYGTDAARAMMDGQEGRFLRGLKSILGTPLAREPRMFLNERLTLIEVIARFLAEIRTRAERLSGERFDRALSGRPVHFHSASAERDAQACTDLHDAYLMAGFSEVCFLPEPEAAALAVAGQGRMLIVDIGGGTSDFTLCDRRGTTTRMLASRGLRIGGTDFDRVLSLDHAMPLLGYEAQIGAELGEASHSAPRALFHDLASWEKIAFVYDPATLREVRRWVRLAEQPRLFERLAEVLESHLGHDVAYAVEAGKIAANGAAAGRIALDIVERGLGADLGNAAMQAALAGFADEIATCAMQTVRDAGVGPDSVDQVVFVGGSSLMGVIRAALARVLPGAEQQDSEVFTAVVHGLALASEDQ | not soluble |
| MHPMNILLKLPLKIPLMIIEKAREILEKHPLCNHCLGRMFAKLGKGTNEERGKAIRLILSMELNREVKEPENCELCQGIFRRMNELLDLVRNAVEDYEFQTFQIGSRFPKDILEKEKKIWEEFGITTGEPINREFNRELGKLFAKVTGKIPNRERPDIVIIVEPFSSKVELQVNPIYVAGRYRKLVRGIPQTPAPGFEESIATIICRVFKKNFRGKCIFKGAGREDVDVRTLGRGRPFVVEIKKPRKRKVDLKLIEEEINSSGKVEVLELKFITPEESEKILTARHKKIYEALVYVKDGVSAEEVEKVVKSLKGSEIKQRTPRRVLNSRADIVRVRRVYNVSGEYIDEHHFKLKLVTDGGLYIKELISGDKGRTKPSVSEILGKEAWCEILDVLDVLDGDENVEGDSLEHHHHHH | not soluble |
| MEAAASEPSLDLDNLKLLELIGRGRYGAVYKGSLDERPVAVKVFSFANRQNFINEKNIYRVPLMEHDNIARFIVGDERVTADGRMEYLLVMEYYPNGSLCKYLSLHTSDWVSSCRLAHSVTRGLAYLHTELPRGDHYKPAISHRDLNSRNVLVKNDGTCVISDFGLSMRLTGNRLVRPGEEDNAAISEVGTIRYMAPEVLEGAVNLRDCESALKQVDMYALGLIYWEIFMRCTDLFPGESVPEYQMAFQTEVGNHPTFEDMQVLVSREKQRPKFPEAWKENSLAVRSLKETIEDCWDQDAEARLTAQCAEERMAELMMIWERNKSVSPTAHHHHHH | soluble |
